# Laboratory results taken from the nanobody polyreactivity screen of Harvey et al. (2022).
# Test: yeast display, Sf9 membrane polyspecificity reagent, FACS + sequencing; frameworks hold sequencing errors
# Method in brief: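 Galactose induction of a Saccharomyces cerevisiae BJ5465 synthetic nanobody display library ran 36–48 hours. The cells were then stained for 1 hour at 4 °C with 10% biotinylated, detergent-solubilized Sf9 membrane reagent, pulled down on streptavidin microbeads and FACS-sorted into low and high (top ~1%) gates on expression and reagent-binding fluorescence. Labels for polyreactivity follow the gate of origin.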
row,Sequence,polyreactivity (PSR sort gate)
1,QVQLVESGGGLVQAGGILRLSCAASGRIFRGYAMVWYRQAPGKERELVAAISNGGGTNYADSVKGRFTISRDNAKNTVYLQMNSLKPEDTAVYYFATGFLQNYYKYTSSFRFYYWGQGTQVSVSS,high polyreactivity
2,QVQLVESGGGLVQAGGILRLSCAASGRIFVLNPMGWSRQAPGKERELVAASSGSGSRTYYADSVKGRFTISRDNAKNTVYLQMNSLKPEDTEVYYCNTVSRRSEHTYDYWGQGTQVTVSS,high polyreactivity
3,QVQLVESGGGLVQAGGILRLSCAASGRIFYVNAMGWYRQAPGKERELVATIRRGGDTNYADSVKGRFTISRDNAKNTVYLQMNSLNPEDTAVYYCAAKAYQSSYQRYYWGQGTQVTVSS,high polyreactivity
4,QVQLVESGGGLVQAGGILRLSCAASGRITFSHNTMGWYIQAPGKERELVAAISSGGRTNYADSVKGRFTISRDNAKNTVYLQMNSLKPEDTAVYYCARESHYDFIYDGMDYWGQGTQVTVSS,low polyreactivity
5,QVQLVESGGGLVQAGGILRLSCAASGRTFAPYTMGWYRQAPGKERELVAVITRRDGRTYYADSVKGRFTISRDNAKNTFYLQMKSLKPEDNAVYYCCFLPADWYRPVRYLRTDSDYWGQGTKVTVSS,low polyreactivity
6,QVQLVESGGGLVQAGGILRLSCAASGRTFFSNAMGWYRQAPGKEREFVAAISNGDNTYYADSVKGRFTISSDNAKNTVYLQMNSLKPDDTAVYYCAADQYWSWIYYPVVEYDYWGLGTQVTVSS,low polyreactivity
7,QVQLVESGGGLVQAGGILRLSCAASGRTFNSYAMGWYRQAPGKERELVAAISWIGGSTYYADSVKGRFTISRDNAKNTVYLQMNSLKPEDTAVYYCAADSYRFYSGYYYWGQGTQVTVSS,low polyreactivity
8,QVQLVESGGGLVQAGGILRLSCAASGRTFYSNAMGWYRQAPGKARELVAAISRSGGRTYYADSVKGRFTISRDNAKISVYLQMNSLKTEDTAVYYCNKVRQNSSMDYWGQGTQVTVSS,high polyreactivity
9,QVQLVESGGGLVQAGGILRLSCAASGSIFPFYAMGWYRQAPGKERELVATISWSGGRTYYADSVKGRFTISRDNANNTVYFQMNSLKPEVTAVYYCAAQSYDYWYDYDYWGQGTQVTVSS,high polyreactivity
10,QVQLVESGGGLVQAGGILRLSCAASGSIFSFYAMGWYRQAPGKERELVAAITRSGGTYYADSVKGRFTISRDNAKNTVYLQMNSLKPEDTAVYYCAAQYWYYYIWWEYYYWGQGTQVTVSS,low polyreactivity
11,QVQLVESGGGLVQAGGILRLSCAASGSIFTRYAMGWYRQAPGKEREFVAAITWRGGRTSYADSVKGRFTISRDKAKNTVYLQMNSLKPEDTAVYYCNRRYPYRTYDYWGQGTQVTVSS,high polyreactivity
12,QVQLVESGGGLVQAGGILRLSCAASGSIFYAYAMGWNRQAPGKEAEFVARISGSGGSTYYADSVKGRFTISRDNAKNTVYLQMNSLKPEDTAVYYCAATRERYKYYKRYYWGQGTQVTVSS,low polyreactivity
13,QVQLVESGGGLVQAGGILRLSCAASGSIIVYNSMVCYRQAPGKERELVARITGRGGRTYYADSVKGRFTISRDNAKNTVYLQMNSLKPEDTAVYYCAKYGYWGQGTQVTVSS,high polyreactivity
14,QVQLVESGGGLVQAGGILRLSCAASGSIYYAMGWYRQAPGKERELVAGINSSGSTNYADSVKGRFTISRDNAKNTVYLQMNSLKPEDTAVYYCAARAIVSFDYWGQGTQVTVSS,low polyreactivity
15,QVQLVESGGGLVQAGGILRLSCAASGSNFAPYAMGWYRQSPGKERELVATISASGGTTYYADSVKGRFTISRDTAKNTVYLQMNSLKPEDTAVYYCNADSNWYYLGNYYGLNDYWGQGTQVTVSS,low polyreactivity
16,QVQLVESGGGLVQAGGILRLSCAASGSTFYQYAMGWYRQAPGKERELVAAITRGGRTYYADSVKGRFTISRDNAKNTVYLQMNSLKPEDTAVYYCAAGYRTAYRGSSYYYWGQGTQVTVSS,high polyreactivity
17,QVQLVESGGGLVQAGGILRLSCAASGSTSYIYAMGWYRQAPGKERELVAAITWRTGRTYYADSVKGRFTISRDNAKNTVYLQMNSLKPEDTAVYYCAATYYLSFAVKMYYWGQGTQVTVSS,high polyreactivity
18,QVQLVESGGGLVQAGGILRLSCAPSGSTFTFYAMGLYRQAPGKERELVAAINSSGGRTYYADSVKGRFTISRDNAKNTVYLQMNSLKPEDTAVYYCAARRPLVRYIMGYWGQGTQVTVSS,high polyreactivity
19,QVQLVESGGGLVQAGGILRLSCASSGRIFTRYAMGWYRPAPGKEREFVAAINYRGSSTYYADSVKGRFTISRDNAKNTVYLQMNSLKPEETAVDYCNTYGQTDTYWRYYYWGQGTQVTVSS,high polyreactivity
20,QVQLVESGGGLVQAGGILRLSCASSGRTFRYYAKGWYRQAPGKERELVATISKSGGSTYYADSVKGRFTISRDNAKNTVYLQMNRLKPEDTAVYYCAAVGPYRWYDYWGQGTQVTVSS,high polyreactivity
21,QVQLVESGGGLVQAGGILRLSCDASGRIFYTYAMGWYRHGPGQERELVAAISRSGTSTYYADSLKGRFTIARDNEKNHVYLQMNSLKPEDTAVYYCAIYKRLPDYGYWGQGTLVTVSS,high polyreactivity
22,QVQLVESGGGLVQAGGILRLSCDASGSIFVYNAMGWYRQAPGKERELVAGITFIGGSTYYADSVKGRFTISRDNAKNTVYLQMNSLKPEDTAVYYCNADVAPGIFYGYDSWGQGTQVTVSS,low polyreactivity
